# From patent publication US11541133B2, “Treatment of cancer cells overexpressing somatostatin receptors using ocreotide derivatives chelated to radioisotopes” (RADIOMEDIX INC., priority 2017, dated 2023)
# How the values were obtained:
# [1] = Repeat-dose (fractionated vs single dose) toxicity study in tumor-free CD-1 mice (FIGS. 37-39); format: in vivo
# Description: Female, tumor free CD-1 mice are injected with one dose of 40 μCi ^212Pb-DOTAMTATE, 2 doses of 20 μCi ^212Pb-DOTAMTATE or three doses of 15 μCi ^212Pb-DOTAMTATE. Animals are given three weeks between doses for these who received multiple treatments. Animals are weighed three times per week and monitored daily for signs of termination criteria (15% weight loss over 2 days or 20% loss from initial weight, lack of grooming over 5 days, lethargy/weakness over 3 days, reduced motility, hunched back, diarrhea, hypothermia). Blood for hematological analysis is collected weekly.
# [2] = tested on: AR42J cells
# Description: Thirty-thousand (3×10^4) AR42J cells are grown in the wells of a 96 well plate for 2 days. Cells are then incubated for 4 hours with increasing doses of ^212Pb-DOTAMTATE ranging from 0 nCi/ml to 800 nCi/ml. Eight wells per group are treated. Cells are washed with PBS to remove drug and then fresh media is introduced. Cells are allowed to incubate for 6 days at 37° C. Cells are then rinsed and incubated with fluorescein diacetate for 30 minutes and read with a fluorimeter at 485/535 nm. Percentage of viable cells is calculated based on untreated cells as a control.
# [3] = mouse, in vivo
# Description: Signs of acute toxicity are examined in a non-GLP repeat dose study to compare single administration vs fractionation (described below). This study is designed based on observations made in athymic nude mice. […] This observation is correlated with the GLP findings that hematological toxicity in the surviving animals from the higher dose groups is recoverable within a month. As renal and hepatic toxicity is cumulative a single dose treatment vs multiple doses leading to the same cumulative dose should be similar (Barendsen, 1964). Fractionated administration of radioactivity three weeks apart compared to a single injection had very similar toxicity profile.
# [4] = Dosimetry and bio-distribution of ^203Pb-DOTAMTATE in patients with somatostatin expressing neuroendocrine tumors (SPECT-CT); format: in vivo, human
# Description: Total of 6 patients are enrolled in the first-in-human open-label, single-dose, dosimetry and bio-distribution of ^203Pb-DOTAMTATE.
# All patients (1 female and 5 male) receive an average dose of 4.94 (4.66-5.26) mCi of ^203Pb-DOTAM-TATE and undergo 1 hour, 4 hour, 24 hour and 48 hour post injection SPECT-CT scans. Ethnicity of all 6 patients is Caucasian.
# Pharmacokinetic data from ^203Pb-DOTAMTATE imaging are used to calculate the absorbed dose from ^203Pb-DOTAMTATE imaging. The data is then extrapolated to calculate the expected tissue absorbed doses following the administration of ^212Pb-DOTAMTATE for future Targeted Alpha particle Therapy (TAT).
# [5] = Non-GLP dose range finding (single dose acute toxicity) study in athymic nude mice (FIGS. 35-36); format: in vivo
# Description: Female athymic nude mice (˜20 g) are injected with a single dose of 10 μCi, 20 μCi, 40 μCi or 60 μCi of ^212Pb-DOTAMTATE or control PBS intravenously. Five animals are assigned per treatment group. Animals are weighed three times per week and monitored daily for signs of termination criteria (15% weight loss over 2 days, lack of grooming over 5 days, lethargy/weakness over 3 days, reduced motility, hunched back, diarrhea, hypothermia). The study is concluded after 4 weeks.
# [6] = in vivo; set-up: species or system mice
# Description: Female CD-1 mice (˜20 g) are injected with a single dose of ^212Pb-DOTAMTATE. Specifically, 10 μCi of ^212Pb-DOTAMTATE is diluted in PBS and 100 μl is administered to the mice via intravenous injection. The animals are sacrificed at predetermined time points of 15 minutes, 1 hour, 4 hours and 24 hours and 48 hours post drug injection. Tissues are collected from each animal and evaluated for amount of radioactive material in each organ by auto gamma counter. Specifically, organs are harvested, weighed and transferred to polypropylene tubes. The tubes are placed in a calibrated Wizard2 γ-counter (PerkinElmer, Shelton, Conn.) and counted for three minutes (204-274 keV). A standard consisting of one-twentieth of the injection volume is counted with each time point. The background is automatically subtracted from the counts. The standard is also used for decay correction. % ID/g is calculated for each organ collected.
# [7] = in vivo; set-up: species or system mice; settings: CD-1, mouse, iv, 10 uCi, total radioactivity
# Description: CD-1 mice are injected with 10 μCi of ^212Pb-DOTAMTATE as part of a biodistribution study. Blood is collected at 15 minutes; 1 hour and 4 hours post injection. Body weights determined by taking the average of 10 CD-1 mice at 7 weeks old, the age of the mice in this study and using this weight, blood volume is estimated using the equation by Lee and Blaufox (1985). % ID in blood mice is then calculated for 5 mice per group.
# [8] = tested on: AR42J tumors; experiment: Combination therapy efficacy study with ADRUCIL in AR42J xenograft athymic nude mice (FIGS. 42-43); format: in vivo; settings: ADRUCIL alone, 15 mg/kg once weekly, nine injections
# Description: Athymic nude mice are given AR42J tumors and allowed to grow until tumors reach about 300 mm^3. Mice in treatment groups are injected with 100 μl of 15 mg/kg ADRUCIL® once weekly for a total of nine injections. 10 μCi of ^212Pb-DOTAMTATE is given at either 2 week or 3 week intervals for a total of 3 treatments. The ^212Pb-DOTAMTATE is given within 24 hours after an ADRUCIL® treatment. 10 μCi per 4.1 ng peptide is used, and the cumulative injection dose is 30 μCi. The animals are monitored daily, and calipered and weighed 3 times per week. The animals are sacrificed when termination criteria are met.
# [9] = female, CD-1, mouse, iv, 10 uCi, total radioactivity
Structure (SMILES),"animals that died ([1]; 1×40 μCi, nine days after injection) [%]","animals that died ([1]; 2×20 μCi, within four weeks of the study, one week after the second dose) [%]","mortality ([1]; 3×15 μCi, three weeks between doses)",cytotoxic effect [2],toxicity compared with single 40 μCi dose [3],"cumulative dose corresponding to the maximum theoretical absorbed dose estimate to kidneys of 23 Gy ([4]; human, in vivo) [mCi]","dose per therapy cycle corresponding to the maximum theoretical absorbed kidney dose of 23 Gy ([4]; patients, dosimetry analysis, 3 cycles) [mCi]",animals surviving until the end of the four-week study ([5]; single dose 10 μCi and 20 μCi groups) [%],time of death of all animals ([5]; single dose 60 μCi) [days post injection],"tissue uptake at 1 h [6, 9] [%ID/g]","tissue uptake at 24 h [6, 9] [%ID/g]","percent-injected dose per gram, all organs with the exception of the kidneys ([6]; mouse)",tissue uptake dose at 1 h [7] [%ID],tissue uptake dose at 4 h [7] [%ID],median survival [8] [weeks]
"C[C@@H](O)[C@H](NC(=O)[C@@H]1CSSC[C@H](NC(=O)[C@@H](Cc2ccccc2)NC(=O)CN2CCN(CC(N)=O)CCN(CC(N)=O)CCN(CC(N)=O)CC2)C(=O)N[C@@H](Cc2ccc(O)cc2)C(=O)N[C@H](Cc2c[nH]c3ccccc23)C(=O)N[C@@H](CCCCN)C(=O)N[C@@H]([C@@H](C)O)C(=O)N1)C(=O)O [^212Pb-DOTAMTATE, ((4R,7S,10S,13R,16S,19R)-13-((1H-indol-3-yl)methyl)-10-(4-aminobutyl)-16-(4-hydroxybenzyl)-7-((R)-1-hydroxyethyl)-6,9,12,15,18-pentaoxo-19-((R)-3-phenyl-2-(2-(4,7,10-tris(2-amino-2-oxoethyl)-1,4,7,10-tetraazacyclododecan-1-yl)acetamido)propanamido)-1,2-dithia-5,8,11,14,17-pentaazacycloicosane-4-carbonyl)-L-threonine chelated to M, metal not drawn]",~40,50,no mortality,complete cell death,same toxicity profile,32.7,10.9,100,7,~30,~10,less than 10%,1.8,0.1,–
O=c1[nH]cc(F)c(=O)[nH]1 [ADRUCIL®],–,–,–,–,–,–,–,–,–,–,–,–,–,–,2.4
